Measurements: article PMC3265611

Biological target: T1, Flag-yTdp1 H432N (Saccharomyces cerevisiae, UniProt P38319 1-544, H432N)
T1 sequence: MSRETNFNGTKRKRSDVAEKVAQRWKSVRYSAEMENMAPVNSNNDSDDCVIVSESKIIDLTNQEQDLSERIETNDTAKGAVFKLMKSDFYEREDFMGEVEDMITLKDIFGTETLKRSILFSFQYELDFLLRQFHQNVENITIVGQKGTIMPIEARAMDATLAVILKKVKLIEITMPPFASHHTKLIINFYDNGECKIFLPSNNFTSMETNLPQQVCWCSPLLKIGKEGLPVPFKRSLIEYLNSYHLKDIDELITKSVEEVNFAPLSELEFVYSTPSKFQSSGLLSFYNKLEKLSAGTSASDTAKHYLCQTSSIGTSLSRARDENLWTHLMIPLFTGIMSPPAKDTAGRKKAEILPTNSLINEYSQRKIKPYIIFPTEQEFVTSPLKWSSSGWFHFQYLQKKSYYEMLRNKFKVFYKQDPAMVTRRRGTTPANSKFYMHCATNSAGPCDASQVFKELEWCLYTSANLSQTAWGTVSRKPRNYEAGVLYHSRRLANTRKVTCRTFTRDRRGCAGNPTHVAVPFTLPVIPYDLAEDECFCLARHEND
Assay: EMSA

B1: 3'-pY 14-mer substrate (ssDNA)
DNA: GATCTAAAAGACTT
modifications: 3' phosphotyrosine
B1: no binding.
